# Target: human type IIA sPLA2 (human) (UniProt P14555)
# Assay: cell-based or functional assay
# human type IIA sPLA2 (human), sequence (P14555 21-144): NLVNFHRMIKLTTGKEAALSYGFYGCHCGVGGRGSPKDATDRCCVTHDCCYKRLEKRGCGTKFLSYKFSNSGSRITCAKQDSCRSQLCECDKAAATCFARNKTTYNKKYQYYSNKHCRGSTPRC
Mean % Inhibition at fixed peptide concentration [5 µM],Substance,IC50 of sPLA2 enzyme inhibition (3H-labelled E. coli membranes as substrate)
–,"D60, 65E-PIP (59-67) (peptide)",4.2 µM
34.2%,PIP (56-67) (peptide),–
14.2%,PIP (57-67) (peptide),–
59.5%,PIP (58-67) (peptide),3.67 µM
56.4%,PIP (59-67) (peptide),3.8 µM
–,PIP (60-67) (peptide),5.75 µM
